Laboratory results reported in patent US20230416345A1, “NEW TYPE II COLLAGEN BINDING PROTEINS” (Navigo Proteins GmbH, priority 2020, published 2023).
Blank lines part the entries; values can stand above or below the binder they belong to.

What was measured:
[1] = target: human type II collagen (type II collagen alpha I chain) (human) (UniProt P02458); test: SPR, Biacore 3000, Langmuir 1:1 model
[2] = target: human type II collagen (type II collagen alpha I chain) (human) (UniProt P02458); test: ELISA, collagen coated on the plate, dilution series of the binder, detection via StrepTag, A 450-600 nm
[3] = target: human type II collagen (type II collagen alpha I chain) (human) (UniProt P02458); test: ELISA (KD determination by ELISA, Example 5)

B2: CID 211999 (SEQ ID NO: 38), dimer of SEQ ID NO: 2 (directly joint monomers) (designed binder, not shown: small tags and cut ends)
chain: IAAKFDEAQSAADSEILHLPNLTEQQRHYFRRWLSDDPSVSTHILTQAQHLNDDQAPKIAAKFDEAQSAADSEILHLPNLTEQQRHYFRRWLSDDPSVSTHILTQAQHLNDDQAPKSAWSHPQFEK
Kd [1]: 127 nM | Kd [2]: 8.06 nM

B4: CID 212001 (SEQ ID NO: 41), tetramer of SEQ ID NO: 2 (designed binder, not shown: small tags and cut ends)
chain: IAAKFDEAQSAADSEILHLPNLTEQQRHYFRRWLSDDPSVSTHILTQAQHLNDDQAPKIAAKFDEAQSAADSEILHLPNLTEQQRHYFRRWLSDDPSVSTHILTQAQHLNDDQAPKIAAKFDEAQSAADSEILHLPNLTEQQRHYFRRWLSDDPSVSTHILTQAQHLNDDQAPKIAAKFDEAQSAADSEILHLPNLTEQQRHYFRRWLSDDPSVSTHILTQAQHLNDDQAPKSAWSHPQFEK
Kd [1]: < 0.5 nM | Kd [2]: 0.3 nM

Now from value to binder:

Kd [1]: 180 nM | Kd [2]: 6.38 nM
B1: CID 212000 (SEQ ID NO: 39), dimer of SEQ ID NO: 2 with linker between the monomers (designed binder, not shown: small tags and cut ends)
chain: IAAKFDEAQSAADSEILHLPNLTEQQRHYFRRWLSDDPSVSTHILTQAQHLNDDQAPKGGGGSGGGGSGGGGSGGGGSIAAKFDEAQSAADSEILHLPNLTEQQRHYFRRWLSDDPSVSTHILTQAQHLNDDQAPKSAWSHPQFEK

Kd [3]: 460 nM | Kd [1]: 169 nM
B3: 210987 (SEQ ID NO: 36) (designed binder, not shown: small tags and cut ends)
chain: IAAKFDEAQQAAFYEILHLPNLTEQQRNYFIQWLRDDPSVSLEVLGTAQRLNDSQAPKIAAKFDEAQQLAFYQILHLENLTEEQRNAFIQSLRDDPSVSLEVLGEAIKLNLSQAPK
